What follows are sequences tested on MS2 coat protein (assay: apparent KD of MS2 coat protein; higher = weaker reporter binding). Conditions: Eterna round: R107; input ligand: none.
Outline: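 Each design's apparent KD comes from the median of binding-curve fits to its normalised clusters. Those clusters carried RNA switches transcribed on-chip from Illumina sequencing clusters. SNAP-549-labelled MS2 coat protein was titrated onto them in twofold steps (0.7 or 1.5 nM to 3 µM; per step 0.8–1.5 h down to 10–20 min). Conditions were 100 mM Tris-HCl pH 7.5, 80 mM KCl, 4 mM MgCl2, without or with constant ligand.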

In order of rising “apparent KD of MS2 coat protein” value:
1. UGGGAAGGAGGAAGGAGCGCCAUAAGGGUGACUGUCUGGGUACAUGAGGAUCACCCAUGUAGGCAGGUAGGUCGCCUCGCUCUCA [Bibienoned]  10.1 nM
2. AGUAACAUGAGGAUCACCCAUGUAUGAGAAGGAGCGUGUUUUAACACAGGUAGGUCGCUCAAUAUUAUUUACUAGCGAAAGCUAG [JR_SSArginiA_Sub007]  14.6 nM
3. AAACGCCACGGAAGGAGCGACAUGAGGAUCACCCAUGUAGAAGUGGCGGAUGCACCCUCCUGUCAGGUAGGUCGCCGUGCGCCAA [XArg-B24]  21.2 nM
4. AACAUGAGGAUCACCCAUGUCUGAACUGAAGGAGCGCUAAAUAAGGCAGGUAGGUCGCGGAAUUUUAUAUAUAUAUAUAUAUGGG [9.E]  25.6 nM
5. AACGUAUACAGAAGGAGCGUGAUUUAUAUUUCUUUAACAUAUACAUGAGGAUCACCCAUGUCACAGGUAGGUCGCUGUAUUCGUA [JR_ExcArginiB_Sub023]  31.1 nM
6. GCACAUGAGGAUCACCCAUGUAUUACUGAAGGAGCGAGACAGAACUCAGGUAGGUCGCAGACUGCACAAUUGCGGACGACAUGGG [Exclusion Arginine A GF22]  31.5 nM
7. GGGUAAGAUCCGGAUACCAGCGAACAUGAGGAUCACCCAUGUGACCUAAGAUAGGCUAAACGCCCUUGGCAGCCGAGAUAGCGUU [Same State Theophylline B GF 6]  41.3 nM
8. GACCGAUUAUAGUGCGAUUGUCUUGUGGAAGGAGCGCAGAGGACUGCAGGUAGGUCGCCACAUGAGGAUCACCCAUGUCAGGAUU [Reinorlaan]  46 nM
9. AGGUGCAAAGCACCCUCUGGCCCUCGUGAAGGAGCGCUCGAAAGAGCAGGUAGGUCGCAUGAGGAUCACCCAUGUGAGCCAGAGA [Arg A Exc A v1]  52.5 nM
10. AUAACAUGAGGAUCACCCAUGUUGAGUGAUACCAGACCAUGUAGUGUCCCUUGGCAGCACAGGUAAAGUUGUAAAUAACGAUAGA [#13 SameState-TheophyllineA]  53.9 nM
11. GGACUAACCAGAAGGAGCGACACGCAGAAACUGCAAAAUCCUCCGCACGAGGAUCACCCGUGUCAGGUAGGUCGCUGGUUAGUCG  54.3 nM
12. CUAAGAGCGGCGGCCGCCACUGGUAACCGAGAGGAGGAGCCUCUGACAUGAGGAUCACCCAUGUUCAGGACCGGGUCGUCUUAGA [#06 Same State - Tryptophan B]  60.2 nM
13. AAUACCGGUCCUCGAAGUGAUCCUCAUGAACGAGGACCGGUACGGCCGCCACUCGAUAACAUGAGGAUCACCCAUGUAAUAAUAA [|T'-M'-Trp-Ms2|_Design4]  63.9 nM
14. AAAAUCCUAUCUGAGGAUCACCCAGGUGAAGGAGCGCCCGAAAGGGCAGGUAGGUCGCACCUGAGGAUCACCCUGGUAACCUAAA [ArgEX 10 #DoubleMS2 #OpenEnded #AlternativeMS2]  102 nM
15. AGAGUUAGACAAAAGUCUAGCUCACCAGAAGGAGCGUCCGAAAGGACAGGUAGGUCGCUGGUACAUGAGGAUCACCCAUGUUCCU [ArgAS 8 #OpenEnded]  124 nM
16. GCUGCCAUACGAAGGAGCGCUGCUGCGAUGUGGCGAACAUGAGGAUCACCCAUGUGGCAGCAGCAGGUAGGUCGCGUAUGGCAGC [#01 Exclusion - Arginine B]  144 nM
17. GGAUAGGACACGGCCGCCACUAGCUAGGAUACUAGCAACAUUUCCUCACUUGAGGAUCACCCAAGUAGGACCGGGUGUCCUAUCG  162 nM
18. UGAAAGUAGGGAAGGAGCGCUACAACAUGAGGAUCACCCAUGUAAUGAGGAUCACCCAUGUGGCAGGUAGGUCGCCCAAAACAUG [#14 Same State - Arginine B]  167 nM
19. GGAUAGGACAGAAGGAGCGACAUCGCCGAAAGGCUGGUAAGAUCACAUGAGGAUCACCCAUGUCAGGUAGGUCGCUGUCCUAUCG [ArgXB 11 #Zipper #MS2Left #StaticStem #Blueprint]  283 nM
20. CAGACUAGGGCGGCCGCCACUGUGGCUACGGUACAUGAGGAUCACCCAUGUUUGUGGUUGAUCUACAGGACCGGGCCCUGGCACG [Orbera]  305 nM
21. UGUAUGUGAUCUGAUACCAGCCUCAUAACUUGAGGAUCACCCAAGUGGAGCGGAAACGCUGGCCCUUGGCAGCAGAUCGCAUACU [TheoBS 2 #AlternativeMS2]  460 nM

Same assay, conditions: Eterna round: R107; input ligand: theophylline 20 uM

In order of falling “apparent KD of MS2 coat protein” value:
1. GCUGCCAUACGAAGGAGCGCUGCUGCGAUGUGGCGAACAUGAGGAUCACCCAUGUGGCAGCAGCAGGUAGGUCGCGUAUGGCAGC [#01 Exclusion - Arginine B]  489 nM
2. UAUACAUGAGGAUCACCCAUGUGCCAUGAUACCAGACAUGAAAAUGUCCCUUGGCAGCAUGGUGAUUGUAUAGCGGGAAACCCGA [Utechov]  261 nM
3. UUGGGUAUGCGAAGGAGCGGGAAAUAUAUAUAUAUAAUCCUAACAUGAGGAUCACCCAUGUCCCAGGUAGGUCGCGCAUGUUUGG [12.K]  250 nM
4. UGUAUGGACUGAAGGAGCGGAAAAUAAACCUGAGGAUCACCCGGGUAAUAGGCGAAAGCCAUCCAGGUAGGUCGCAGUCCAUACU  233 nM
5. UAAACUACACAUGAGGAUCACCCAUGUGGCCGAGGACCGGUACGGCCGCCACUCGUGUGUUAAUAAAAGAACUGCAAGAUUCUUU [Issoraor]  220 nM
6. UGUAUGUGAUCUGAUACCAGCCUCAUAACUUGAGGAUCACCCAAGUGGAGCGGAAACGCUGGCCCUUGGCAGCAGAUCGCAUACU [TheoBS 2 #AlternativeMS2]  200 nM
7. AACUGGACCCGUGAUACCAGAGACAUGAGGAUCACCCAUGUACAUGAGGAUCACCCAUGUCUCCCUUGGCAGCACCGCAGGGAGC [Exclusion Theophylline B GF 13]  127 nM
8. AGAGUUAGACAAAAGUCUAGCUCACCAGAAGGAGCGUCCGAAAGGACAGGUAGGUCGCUGGUACAUGAGGAUCACCCAUGUUCCU [ArgAS 8 #OpenEnded]  116 nM
9. AAAAUCCUAUCUGAGGAUCACCCAGGUGAAGGAGCGCCCGAAAGGGCAGGUAGGUCGCACCUGAGGAUCACCCUGGUAACCUAAA [ArgEX 10 #DoubleMS2 #OpenEnded #AlternativeMS2]  105 nM
10. AAUACCGGUCCUCGAAGUGAUCCUCAUGAACGAGGACCGGUACGGCCGCCACUCGAUAACAUGAGGAUCACCCAUGUAAUAAUAA [|T'-M'-Trp-Ms2|_Design4]  93.1 nM
11. AUUAUCAUGGUCAUAUAUAUUUCGUCAGAUACCAGACUAGAUAUAGUCCCUUGGCAGCUGUUACAUGAGGAUCACCCAUGUUAUA [JR_ExcTheophyA_Sub016]  76.8 nM
12. AUAACAUGAGGAUCACCCAUGUUGAGUGAUACCAGACCAUGUAGUGUCCCUUGGCAGCACAGGUAAAGUUGUAAAUAACGAUAGA [#13 SameState-TheophyllineA]  64.7 nM
13. GGACUAACCAGAAGGAGCGACACGCAGAAACUGCAAAAUCCUCCGCACGAGGAUCACCCGUGUCAGGUAGGUCGCUGGUUAGUCG  63.6 nM
14. GGGCGCGUGGACCGGCGUGCUCCGCUCCGUCGAGGACCGGUACGGCCGCCACUCGACAUGAGGAUCACCCAUGUGUGAGCUCGCG [#1 Exclusion - Tryptophan A Attempt #16 (HarryS)]  63.6 nM
15. GACCGAUUAUAGUGCGAUUGUCUUGUGGAAGGAGCGCAGAGGACUGCAGGUAGGUCGCCACAUGAGGAUCACCCAUGUCAGGAUU [Reinorlaan]  45.1 nM
16. AAACGCCACGGAAGGAGCGACAUGAGGAUCACCCAUGUAGAAGUGGCGGAUGCACCCUCCUGUCAGGUAGGUCGCCGUGCGCCAA [XArg-B24]  39 nM
17. CGAUGCGCAUUAUCCCACUGGUAUGAGUCUCGAGGACCGGUACGGCCGCCACUCGCUACCGUACAUGAGGAUCACCCAUGUAUUA [theeternabot_exclusion_MS2_Trp_A_13]  38.8 nM
18. AGCACAUGAGGAUCACCCAUGUGUCGGUACCGAGGACCGGUACGGCCGCCACUCGCAGGACAUGAGGAUCACCCAUGUGCCGCCG [SSTA DOUBLE!!! :-D #8]  36.1 nM
19. CAUUGAGCAGCUGAUACCAGUGCCUGAACUUACAUGAGGAUCACCCAUGUAUGCCCAAAACACCCUUGGCAGCAGAGGAAGAUCG [theeternabot_sameState_MS2_Theo_B_38]  18.9 nM
20. UGGGAAGGAGGAAGGAGCGCCAUAAGGGUGACUGUCUGGGUACAUGAGGAUCACCCAUGUAGGCAGGUAGGUCGCCUCGCUCUCA [Bibienoned]  11.9 nM

From the supplement of paper PMC9170038
